Experimental data: the supplement of paper PMC9112550, “Optimization of the antimicrobial peptide Bac7 by deep mutational scanning” (BMC Biology, 2022)

What follows are sequences tested on Escherichia coli TOP10 (assay: shrunken log2 fold change of peptide-encoding DNA abundance (4.5 h post-induction vs induction); higher = less antimicrobial activity (less host growth inhibition)). Details: time post-induction: 4.5 h; library: site-saturation at positions 5, 18, 19, 20.
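Note: peptides expressed intracellularly from a pBAD plasmid library in pooled LB shake-flask culture, induced with 0.3% L-arabinose, DNA abundance read by NGS, three biological replicates, DESeq2 with apeglm shrinkage.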

Sequence | shrunken log2 fold change
RRIRMRPPRLPRPRPRPDWSPRP | -0.0229
RRIRVRPPRLPRPRPRPIFTPRP | -0.0783
RRIRVRPPRLPRPRPRPIVNPRP | -0.11
RRIRPRPPRLPRPRPRPFQAPRP | -0.216
RRIRARPPRLPRPRPRPKQQPRP | 0.569
RRIRWRPPRLPRPRPRPISVPRP | -0.186
RRIRVRPPRLPRPRPRPSDAPRP | -0.203
RRIRKRPPRLPRPRPRPMPNPRP | 0.399
RRIRLRPPRLPRPRPRPGPEPRP | 0.685
RRIRKRPPRLPRPRPRPTYGPRP | 0.043
RRIRFRPPRLPRPRPRPHMVPRP | -0.809
RRIRMRPPRLPRPRPRPQHIPRP | -0.103
RRIRWRPPRLPRPRPRPYACPRP | -0.355
RRIRCRPPRLPRPRPRPIHEPRP | -0.115
RRIRHRPPRLPRPRPRPTWRPRP | 0.381
RRIRLRPPRLPRPRPRPEFYPRP | 0.0488
RRIRCRPPRLPRPRPRPFFDPRP | -0.199
RRIRDRPPRLPRPRPRPTFRPRP | -0.0707
RRIRVRPPRLPRPRPRPFGQPRP | -0.222
RRIRERPPRLPRPRPRPWKEPRP | 0.0039
RRIRRRPPRLPRPRPRPGGGPRP | 0.841
RRIRPRPPRLPRPRPRPHRPPRP | 0.0359
RRIRQRPPRLPRPRPRPYACPRP | 0.0958
RRIRARPPRLPRPRPRPERQPRP | 1.13
RRIRKRPPRLPRPRPRPGWWPRP | 0.0245

Sequence | shrunken log2 fold change
RRIRLRPPRLPRPRPRPCQRPRP | -0.00788
RRIRIRPPRLPRPRPRPEWCPRP | 0.0249
RRIRHRPPRLPRPRPRPHWYPRP | -0.347
RRIRERPPRLPRPRPRPSQAPRP | 0.151
RRIRPRPPRLPRPRPRPEDRPRP | 0.0448
RRIRERPPRLPRPRPRPAHIPRP | -0.0903
RRIRIRPPRLPRPRPRPWKAPRP | -0.00804
RRIRRRPPRLPRPRPRPKPFPRP | 0.655
RRIRFRPPRLPRPRPRPCQRPRP | -0.124
RRIRARPPRLPRPRPRPCTRPRP | -0.00176
RRIRMRPPRLPRPRPRPFLWPRP | 0.0175
RRIRKRPPRLPRPRPRPVYDPRP | 0.0473
RRIRERPPRLPRPRPRPKYMPRP | 0.822
RRIRERPPRLPRPRPRPMQFPRP | -0.248
RRIRKRPPRLPRPRPRPRKQPRP | 0.224
RRIRDRPPRLPRPRPRPWQWPRP | -0.0124
RRIRFRPPRLPRPRPRPQKPPRP | 0.121
RRIRGRPPRLPRPRPRPHSFPRP | 2.05
RRIRIRPPRLPRPRPRPNPSPRP | 0.0641
RRIRVRPPRLPRPRPRPLREPRP | 0.379
RRIRKRPPRLPRPRPRPDVVPRP | -0.0061
RRIRNRPPRLPRPRPRPEPYPRP | 0.0346
RRIRMRPPRLPRPRPRPKVWPRP | 1.04
RRIRHRPPRLPRPRPRPKNAPRP | -0.223
RRIRRRPPRLPRPRPRPHTLPRP | -0.182

Sequence | shrunken log2 fold change
RRIRRRPPRLPRPRPRPRGPPRP | 0.871
RRIRGRPPRLPRPRPRPVDWPRP | 1.03
RRIRNRPPRLPRPRPRPDCHPRP | 0.081
RRIRMRPPRLPRPRPRPRENPRP | 0.265
RRIRKRPPRLPRPRPRPVMWPRP | -0.221
RRIRDRPPRLPRPRPRPWSNPRP | -0.678
RRIRPRPPRLPRPRPRPGRAPRP | 0.549
RRIRLRPPRLPRPRPRPQMMPRP | -0.371
RRIRMRPPRLPRPRPRPFAAPRP | 0.789
RRIRCRPPRLPRPRPRPVNAPRP | -0.0831
RRIRVRPPRLPRPRPRPAVFPRP | 0.265
RRIRIRPPRLPRPRPRPYMHPRP | -1.32
RRIRVRPPRLPRPRPRPEFRPRP | 0.463
RRIRLRPPRLPRPRPRPMYKPRP | -0.44
RRIRGRPPRLPRPRPRPISDPRP | 0.385
RRIRVRPPRLPRPRPRPQLVPRP | -0.048
RRIRNRPPRLPRPRPRPECEPRP | -0.0156
RRIRLRPPRLPRPRPRPIQFPRP | -0.0198
RRIRCRPPRLPRPRPRPGSCPRP | -0.0844
RRIRLRPPRLPRPRPRPSKQPRP | -0.572
RRIRFRPPRLPRPRPRPDWLPRP | -0.0152
RRIRARPPRLPRPRPRPVTNPRP | 0.275
RRIRPRPPRLPRPRPRPFTNPRP | -0.286
RRIRDRPPRLPRPRPRPFRRPRP | 0.0456
RRIRRRPPRLPRPRPRPWDQPRP | 0.0792
